{"source": "a protein production outcome set (Wang et al. 2014)", "assay": "label from the status in PepcDB records", "data": [{"sequence": "RERLRFERDHFRILVDVTNTVISKLELDVLAAEVSKEIHRFFNIDYISLAICGTHNDKNKLNVFSTRYQSGQAVQHQQTWVDMTGTLAGQVLHSRELLLVNLADIALLAPDDKQLASMLDAGLQAVCLLPLFFGHKMLGVLKLAQCQSDIFTGSNLKLLRQIAARIAIAVDNALAYNEITRLKDS", "values": [{"measurement": "protein production", "result": "failed"}]}, {"sequence": "MSGMVDLKEFLAELGKTQKELKNVIEQAKDIGLELKTNSKMTPEQAGKLYKYIVDGIKEQIQANQPAKNPEQDNKDDLNTAVASKSLNKKVSKTPKKEETKSQPKPKKTKEKKKEAPTPIAKKKGGIEIVNTFENQTPPTENTPKVVSHSQIEKAKQKLQEIQKSREALNKLTQSNANNASNANNAKKEISEVKKQEQEIKRHENIKRRTGFRVIKRNDEVENESENSVTESKKPTQSAAAIFEDIKKEWQEKDKQEAKKAKKPSKPKATPTAKNNKSHKIDFSDARDFKGNDIYDDETDEILLFDLHEQDNFNKEEEEKEIRQNINDRVRVQRKNPWMNESGIKRQSKKKRAFRNDNSQKVIQSTTAIPEEVRVYEFAQKANLNLADVIKTLFNLGLMVTKNDFLDKDSIEILAEEFHLEISVQNTLEEFEVEEVLEGVKKERPPVVTIMGHVDHGKTSLLDKIRDKRVAHTEAGGITQHIGAYMVEKNDKWVSFIDTPGHEAFSQMRNRGAQVTDIAVIVIAADDGVKQQTIEALEHAKAANVPVIFAMNKMDKPNVNPDKLKAECAELGYNPVDWGGEHEFIPVSAKTGDGIDNLLETILIQAGIMELKAIEEGSARAVVLEGSVEKGRGAVATVIVQSGTLSVGDSFFAETAFGKVRTMTDDQGKSIQNLKPSMVALITGLSEVPPAGSVLIGVENDSIARLQAQKRATYLRQKALSKSTKVSFDELSEMVANKELKNIPVVIKADTQGSLEAIKNSLLELNNEEVAIQVIHSGVGGITENDLSLVSSSEHAVILGFNIRPTGNVKNKAKEYNVSIKTYTVIYALIEEMRSLLLGLMSPIIEEEHTGQAEVRETFNIPKVGTIAGCVVSDGVIARGIKARLIRDGVVIHTGEILSLKRFKDDVKEVSKGYECGIMLDNYNEIKVGDVFETYKEIHKKRTL", "values": [{"measurement": "protein production", "result": "failed"}]}, {"sequence": "EDSLATVKVVLIPVGQEIVIPFKVDTILKYLKDHFSHLLGIPHSVLQIRYSGKILKNNETLVQHGVKPQEIVQVEIFSTNPDLYPVRR", "values": [{"measurement": "protein production", "result": "failed"}]}, {"sequence": "SVTFSYLAETDYPVFTLGGSTADAARRLAASGCACAPVLDGERYLGMVHLSRLLEGRKGWPTVKEKLGEELLETVRSYRPGEQLFDNLISVAAAKCSVVPLADEDGRYEGVVSRKRILGFLAERI", "values": [{"measurement": "protein production", "result": "not failed"}]}, {"sequence": "MALNTNQLFAYLNRGDIAEFKFSPLFTTLFFPNVATFSTQNIMLDTLDIEEVTMSAFCSPMVGSQVQRDKGYETSTIKPGYMKPKHEIDPTKTIMRMAGEDPAQLNDPTYRRMRLITGNMRRQINAIKARVEWLAVNAVTTGKNIIEGEGIERYEIDWKIPEKNIIEQADGKKWSEQDKETHYPIYDIELYADQAGCPANVMIMGAEVWRTLRSFKKFRELYDLSRGSESAAELACKNLGEVVSFKGYLGDLALIVYSGKYTDSDGTEKYFLEPDLLVLGNTNNKGLVAYGAIMDQEAVRTGATQNMFYPKNWIEDGDPAIEYVQTHSAPQPVPADIRKFVTVKIA", "values": [{"measurement": "protein production", "result": "not failed"}]}, {"sequence": "MYELTEDFKLRKITKYELDGVDEREDLLVIPPSSKAGPCGNGCLFCYLLQNPPEMIYRVARHDTLNDPTLEERIRYARKHYDLWIRVTDTSGNVKFDENRIKSLYEAGLDEIQISVHTTKKDVRIKLMRNRHAGKLIDLLPLVAKHFRTIADIILTPGFNVDDIGEIIEDLDSMGVHEVRLFPVGVTKYNRFEIRPLTKEE", "values": [{"measurement": "protein production", "result": "failed"}]}, {"sequence": "MFDKIHYYYFNANYEKCLNLSEQFLKESPKFALEFATLSSYKLSLFQKALYYAQELFSLNPTSFNGLMLAKSYIENLRLDEALNLLQTLLTRKDDLEDELKLELAFIYKLSNKLEESEQIFKELLSKDMYNLNLWKNYAEIYFKHDFTKALNAHEHLCHFMQDLIDKLQKGIIAEQTNLNLVKLEDRLHSKTKENLTISKIEDFLTHQILPQKAYLLFKLFRISDSLELFQSLQEANQHHAQFWQNYAKVLEFNSNYQEAYHAYKKCLSLDSHATYQFDLAYLLMRMGVDDNFEEGKKYYESRLFYAHNETFSTYHYNESLKAFNKFGVDAFKNKEVLVFCEQGFGDTIMYARCLEKLCKIASKVLFAPQSAMYEMFKNQIKFLNQNDDIFKNVKVLKNLPTNFDYAIPICSLPFFIDIKLDEILRLKTPILPQKKPHNQRKKLGIFYATPNAENSDLLRNVKFEFLFDVLKDLDYEIISFQMQLKEELPKVIEDRSKLIKNWNDTLNYLYDIDCMLSIDSAIAHLSLAMDIPTIVLLHPRFDWRWGKFENPKSYFWPKAKCFIIKEQEETKRNLQKLIKDILN", "values": [{"measurement": "protein production", "result": "failed"}]}, {"sequence": "MRNMNIYDSLLGAVHSEYDVLMLIKKSERGEVSLVRHRDSGTRYIFRHFYGNSEVYQKLLNVSCPNLPQIMEVGEKDGKTALLEEYVQGDTLSEILEGGLLTIAESKQIARQLCSALWVFHSMGVVHRDVKPDNVIIRGKEAVLIDFDASRIYKSTIQEDTQILGTTGFAAPEQYGLSQSDGRADIYALGVLLNIMLTGEHPSRKLAGGRMGRIVQRCTMVNPSKRYKNILHLLEVL", "values": [{"measurement": "protein production", "result": "failed"}]}, {"sequence": "MSVQLKCDAVNCVYNRSHLCSAEEIEVQGGETTGGDATFCGTFSSKSLGNFVSSLGNMNYSGSLKQAVSAEPIMDPKVHCNAVNCTYNDQRYCHADQVEIRNEVSHTAEETECQTFYPKMSLEHHHHHH", "values": [{"measurement": "protein production", "result": "failed"}]}, {"sequence": "MKKKKIWALIWRKSAFRWLLISIFTAIIISACSYNVSKDENGKVKTVKSHFTPCYVVKHKMGETCVPQNPQRIVVLAQTTLANVLALGVKPIGILGADLPTYLQQARDIQVVGEGWEPDVEKILLLKPDLILGKEYHRTQYNTLSQIAPTVLLEWNGTPSWKQHLEDVAQVLNKTDQAKSLMRNYHQRLEEFKIKMGDRLKNLQISYIDILVGYIWCDVKNSFAGTILADAGLQHPSAQEVVTKGGYITFGLETMPMDADGDVIFTSHWMDEDGAKALKRNQNNPLWRKLKAVEQNQVYVVNRHFWRGSNILAAHKVIDDLFNYLVDAKS", "values": [{"measurement": "protein production", "result": "failed"}]}, {"sequence": "MEKYLRSGTMFVVLAFILWGLTPLYYQYLSGGNLAQILIYRVFWSIPLLLAVRLLFRQRTRFHDAWKDKKSFFFCMIAGLLMIVSWSSFIYALTHHLVLDASLGYFINPLFVIALGCIFLKEKLSLFQAIAVFSGVCGLTFQIIMLRHFPALALTMGLSFALYGLARKFIHYDVMTSITIETLWALPVSLLIFLFSDSGPIISANTPFFLYVMTAPVTIIPLVLFAIALNHTSLIVTGLAQYIEPSLQFLLAIMIFGEHINYAELLCFCAVWFGLFLCISENLYSHYLRARLKPVFGRVQRFFR", "values": [{"measurement": "protein production", "result": "failed"}]}, {"sequence": "MTRPAHPISRYPVPELAALPDDIRQRILEVQDKAGFVPNVFLTLAHRPDEFRAFFAYHDALMLKDGGLTKGEREMIVVATSAANQCLYCVVAHGAILRIYEKKPLVADQVAVNYLKADIPPRQRAMLDFALKVCKASHEVNEADFEALREHGFTDEDAWDIAAITAFFGLSNRMANTIGMRPNDEFFLMGRVPKSK", "values": [{"measurement": "protein production", "result": "not failed"}]}, {"sequence": "MILSAEQSFTLRHPHGQAAALAFVREPAAALAGVRFLRGLDSDGEQVWGELLVTVPLLGEVDLPFRSEIVRTPQGAELRPLTLTGERAWVAVSGQATAAEGGEMAFAFQFQAHLATPEAEGWGGAAFEKMVQAAAGRTLERVAKALPEGLAAGLPPA", "values": [{"measurement": "protein production", "result": "not failed"}]}, {"sequence": "MSISRRDFNKLLLAGAAGSAFGLFGSGNTAFAARKRVVVIGGGFGGAATAKYLKKLDPTLAVTLIEPKPAFVTCPFSNWVLGGLRTMKDITHTYTALRTRHGVNVIADRVVSVDAAKGTLRLAGGRVIGYDRLVVSPGIDFKYDTIPGYSQKIAKSKMPHAWQAGPQTILLHRQLQAMKNGGTVVICPPDNPFRCPPGPYERASLIAYYLKQHKPKSKIVILDAKEKFSKQGLFTKGWESRYPGMIELRGSTGGGKVLGVDAKAMTVETDLGAVKGDVINVIPAQKAGKIAFEAGLTNEKGWCPVNPSSFESTIHQGIHVIGDACIAGAMPKSGFAASSQGKVAAVAIINLLRGQEPAPPSLVNTCYSLIGPKYGVSVAGVYQLSPTGIVEIPGSGGRLRPMPATNSWNRRRFSPKAGTPISARISGDKPLDSCGVPAVNHQAPLPLTHKATPDCRKR", "values": [{"measurement": "protein production", "result": "failed"}]}, {"sequence": "MGMASMSSGTESLRLCVFDLRRGQHEGQELDKILFFYPPDLTFSTQLSVIGLSEGLITFTRLFSPEAACEVIEAERHSHVFYEAEPDIWMVMIVEKNKEIEAVWRIDALRRVLKEVHSLFVMFQGSIRALLEKEPTGGLVRSHLYPFITDYLNDLFVGKKQQLPSFRDTLKERGTVQMLTLARDAALEVQSLVGVLDSCAGTVRCHSVILFHDLLVSTTLSPDDTVDLFAFSVMRLTTNALSSGTSSWSYLRKGSGSPQISSRSTTVPPLGSGGTLPSGNGSSTGRVIRPLQHDKWSKGKDGFLVTDIWGLDATPTILIQKTQESFYLLTYQYKSLTLVLLVPIAAIVNGELDISFVKQQVIENASTKILKVEEKLSKGWGGENAYHVSGYRYLLVDNDMEVSRASPPGKVATLAKESLLALNKLREEVDTEKNRSKQEKDMEICIRAKNNTWVIARLNRGKELYMALEKASETLLDATDSVQRFSNRYCSGAFPMD", "values": [{"measurement": "protein production", "result": "failed"}]}, {"sequence": "MLSKHYKLKFPGTLAMKGGYLFVFLAAVMWGTLGIFAKFLYGFNLSTYTIVFYRVLFALIFLAVYLKVRGLPLLMSKDRLPFYLGFSFFSIFLFYSLYFYTVKISSVSFAVLMLYTAPVYSLIFGRILFGEKLTPSKLTAVFLVILGVLLLNLDGKLNVSKLALLTGLASGLTYSLYGVFVKFAVRREEPERVLFNVLLIGLLFLLPVTDLRVPTAALPYLLGLAFFPTFLGYILYNTALKTVEVSKASIIATIEPVVAIILAYFIFGEALSLLQYLGASLIIAGAILAKR", "values": [{"measurement": "protein production", "result": "failed"}]}, {"sequence": "MARRPFSSQSLVLIVIAIAINMIGGQLISMLKLPIFLDSIGTLISAVLLGPFIGMLTGLLTNLLWGLLTDPIAAAFAPVAMVIGLVAGWLARAGWFRTLPKVIVSGVVITLAVTLVAVPLRTALFGGVTGSGADLFVAWMHSMGQNLVESVAITVIGANLVDKILTAIIVWVLLRQLPLRTTRHFPAMSAVR", "values": [{"measurement": "protein production", "result": "failed"}]}, {"sequence": "MSLSIVSYYGSQQSKCGYCAGANCSLSHGMHAYQLDCRDYQDLIDRGWRRCGYYCYKLRNQETCCPCYTIKCNGLEFKLSKSNKRILRRINRFLRDGKRESKPEAGDGDGEADADYAIVAPEVTASEPQPQLPDKSPPVINVEQVASLATAQRKPTKQATAAAVEAPTLGSNKSSLLSSSAAAPISNKPCKKAKQMRLDRRLAKLGDSASYSTKSLTQEKTLRDFLNTDSETNKHRLKLRLIHVYDDEFRRTLPQSFALYKKYQISIHNDPPKDQDAYKEHLQATPLQNEKPWDGPEMGYGSFHQQYWLDDKLIAVGVIDILPGCVSSVYFFYDPDYSFLSLGTYGSLREIELVQSLAEKVPSLKYYYMGFYIHSCPKMRYKGKLSPSYLLCPETYEWLPLTDVIRAKLDEHKYQRLNEDPAARDVNEFLMEHLDEVKLLLGGRTRTDYKHFRQLRGTVSDDDIIIEYSKLVGKECARRMLYVK", "values": [{"measurement": "protein production", "result": "failed"}]}, {"sequence": "MNTIDIAKSYITAIQTGDHATLGSIISPDVIWHQPGNHQFSGTHRGMAVVGPMLGKMMEVSNGTFAISRADDYMASGDWVAITLEFSGQANGVTLKQAGVDLLRIEDGKIVEVRLFSADQTQEDAFWGR", "values": [{"measurement": "protein production", "result": "not failed"}]}, {"sequence": "MNSSIVNAGIDPQVRESLKSFVGEAIDYANTSGKDAAIAKFNDQNGTFVRGNLYVYAFDYNGTTLALPYQPQLIGTDLSGLQDPYGVNYTKVEIFLEHHHHHH", "values": [{"measurement": "protein production", "result": "failed"}]}, {"sequence": "MSEFIMNNLEQTARRWLEERGVTVEKIAELVYYLQSKYHPDLTMEECIENVNRVISKREVQNAILTGIQLDKLAEDGRLDEPLQSIIRRDEGLYGVDEILALSIVNVYGSIGFTNYGYIDKQKPGILQYLNDKSTGKCNTFLDDIVGAIAAAASSRLAHRAANAE", "values": [{"measurement": "protein production", "result": "not failed"}]}, {"sequence": "MSAERSRWLQCLGLPATADAIAIKTAYRQLARQWHPDCNPDPQATARFQEIQIAYERLLVLQESATAQPVPQAPPADAALIALKRQFQPQLQDLLADGRWAKAIALTEALQQRLPDDWEVRQWLAICYLRQGQALLVQQQRQQAIVYFEKARRTDPHNPRLQQEIQASHRLASARRA", "values": [{"measurement": "protein production", "result": "failed"}]}]}
